Reference: patent US20150344570A1 (published 2015)

T1: FcγRIIb (human, UniProt P31994 43-217)
T1 construct: extracellular domain; also called FcgRIIb; 2b
T1 sequence (looked up): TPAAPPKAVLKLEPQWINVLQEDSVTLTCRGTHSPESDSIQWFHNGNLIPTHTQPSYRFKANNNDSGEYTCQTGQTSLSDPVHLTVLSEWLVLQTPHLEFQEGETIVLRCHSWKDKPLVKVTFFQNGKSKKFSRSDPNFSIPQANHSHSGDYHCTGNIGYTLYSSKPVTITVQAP


What was measured:
FcγRIIIa [1] = biological target: T2, FcγRIIIa (human, UniProt P08637 17-208); test: SPR (Biacore), relative binding
T2 construct: extracellular domain; also called FcgRIIIa; 3a
T2 sequence (P08637 17-208): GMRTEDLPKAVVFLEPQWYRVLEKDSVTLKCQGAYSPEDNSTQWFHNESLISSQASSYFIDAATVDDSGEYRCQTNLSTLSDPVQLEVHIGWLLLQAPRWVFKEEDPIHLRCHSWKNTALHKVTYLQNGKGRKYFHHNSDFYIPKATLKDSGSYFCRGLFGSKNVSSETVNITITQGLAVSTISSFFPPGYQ

FcγRIIb = biological target: T1, FcγRIIb; test: SPR (Biacore), relative binding
FcγRIIIa [2] = biological target: T2, FcγRIIIa; test: SPR; He/Con_3a divided by He/Con_2b (FcγRIIIa against FcγRIIb)

Binder	He/Con_3a (FcγRIIIa [1])	He/Con_2b (FcγRIIb)	He_3a/2b (IIIa/IIb) (FcγRIIIa [2])
GpH7-A5/GpH7-B3 variant S267_01G/GpL16-k0 (antibody, human IgG1, kappa, mutation in the GpH7-B3 chain only; also called He Ab) heavy 1: not shown heavy 2: not shown light: DIVMTQSPLSLPVTPGEPASISCQASESLVHSNRNTYLHWYLQKPGQSPQLLIYKVSNRFSGVPDRFSGSGSGTDFTLKISRVEAEDVGVYYCSQNTHVPPTFGQGTKVEIERTVAAPSVFIFPPSDEQLKSGTASVVCLLNNFYPREAKVQWKVDNALQSGNSQESVTEQDSKDSTYSLSSTLTLSKADYEKHKVYACEVTHQGLSSPVTKSFNRGEC	53.8 % of GpH7-A5/GpH7-B3/GpL16-k0	105 % of GpH7-A5/GpH7-B3/GpL16-k0	0.51 ratio
GpH7-A5/GpH7-B3 variant V266_13S/GpL16-k0 (antibody, human IgG1, kappa, mutation in the GpH7-B3 chain only; also called He Ab) heavy 1: not shown heavy 2: not shown light: DIVMTQSPLSLPVTPGEPASISCQASESLVHSNRNTYLHWYLQKPGQSPQLLIYKVSNRFSGVPDRFSGSGSGTDFTLKISRVEAEDVGVYYCSQNTHVPPTFGQGTKVEIERTVAAPSVFIFPPSDEQLKSGTASVVCLLNNFYPREAKVQWKVDNALQSGNSQESVTEQDSKDSTYSLSSTLTLSKADYEKHKVYACEVTHQGLSSPVTKSFNRGEC	28.1 % of GpH7-A5/GpH7-B3/GpL16-k0	54.4 % of GpH7-A5/GpH7-B3/GpL16-k0	0.52 ratio
GpH7-A5/GpH7-B3 variant V266_10E/GpL16-k0 (antibody, human IgG1, kappa, mutation in the GpH7-B3 chain only; also called He Ab) heavy 1: not shown heavy 2: not shown light: DIVMTQSPLSLPVTPGEPASISCQASESLVHSNRNTYLHWYLQKPGQSPQLLIYKVSNRFSGVPDRFSGSGSGTDFTLKISRVEAEDVGVYYCSQNTHVPPTFGQGTKVEIERTVAAPSVFIFPPSDEQLKSGTASVVCLLNNFYPREAKVQWKVDNALQSGNSQESVTEQDSKDSTYSLSSTLTLSKADYEKHKVYACEVTHQGLSSPVTKSFNRGEC	4.1 % of GpH7-A5/GpH7-B3/GpL16-k0	15.2 % of GpH7-A5/GpH7-B3/GpL16-k0	0.27 ratio
GpH7-A5/GpH7-B3 variant S267_03V/GpL16-k0 (antibody, human IgG1, kappa, mutation in the GpH7-B3 chain only; also called He Ab) heavy 1: not shown heavy 2: not shown light: DIVMTQSPLSLPVTPGEPASISCQASESLVHSNRNTYLHWYLQKPGQSPQLLIYKVSNRFSGVPDRFSGSGSGTDFTLKISRVEAEDVGVYYCSQNTHVPPTFGQGTKVEIERTVAAPSVFIFPPSDEQLKSGTASVVCLLNNFYPREAKVQWKVDNALQSGNSQESVTEQDSKDSTYSLSSTLTLSKADYEKHKVYACEVTHQGLSSPVTKSFNRGEC	30.8 % of GpH7-A5/GpH7-B3/GpL16-k0	192 % of GpH7-A5/GpH7-B3/GpL16-k0	0.16 ratio
GpH7-A5/GpH7-B3 variant V266_09D/GpL16-k0 (antibody, human IgG1, kappa, mutation in the GpH7-B3 chain only; also called He Ab) heavy 1: not shown heavy 2: not shown light: DIVMTQSPLSLPVTPGEPASISCQASESLVHSNRNTYLHWYLQKPGQSPQLLIYKVSNRFSGVPDRFSGSGSGTDFTLKISRVEAEDVGVYYCSQNTHVPPTFGQGTKVEIERTVAAPSVFIFPPSDEQLKSGTASVVCLLNNFYPREAKVQWKVDNALQSGNSQESVTEQDSKDSTYSLSSTLTLSKADYEKHKVYACEVTHQGLSSPVTKSFNRGEC	2.7 % of GpH7-A5/GpH7-B3/GpL16-k0	10.1 % of GpH7-A5/GpH7-B3/GpL16-k0	0.27 ratio
GpH7-A5/GpH7-B3 variant V266_05P/GpL16-k0 (antibody, human IgG1, kappa, mutation in the GpH7-B3 chain only; also called He Ab) heavy 1: not shown heavy 2: not shown light: DIVMTQSPLSLPVTPGEPASISCQASESLVHSNRNTYLHWYLQKPGQSPQLLIYKVSNRFSGVPDRFSGSGSGTDFTLKISRVEAEDVGVYYCSQNTHVPPTFGQGTKVEIERTVAAPSVFIFPPSDEQLKSGTASVVCLLNNFYPREAKVQWKVDNALQSGNSQESVTEQDSKDSTYSLSSTLTLSKADYEKHKVYACEVTHQGLSSPVTKSFNRGEC	-0.7 % of GpH7-A5/GpH7-B3/GpL16-k0	0.4 % of GpH7-A5/GpH7-B3/GpL16-k0	-1.98 ratio
GpH7-A5/GpH7-B3 variant V266_02A/GpL16-k0 (antibody, human IgG1, kappa, mutation in the GpH7-B3 chain only; also called He Ab) heavy 1: not shown heavy 2: not shown light: DIVMTQSPLSLPVTPGEPASISCQASESLVHSNRNTYLHWYLQKPGQSPQLLIYKVSNRFSGVPDRFSGSGSGTDFTLKISRVEAEDVGVYYCSQNTHVPPTFGQGTKVEIERTVAAPSVFIFPPSDEQLKSGTASVVCLLNNFYPREAKVQWKVDNALQSGNSQESVTEQDSKDSTYSLSSTLTLSKADYEKHKVYACEVTHQGLSSPVTKSFNRGEC	57.4 % of GpH7-A5/GpH7-B3/GpL16-k0	81 % of GpH7-A5/GpH7-B3/GpL16-k0	0.71 ratio
GpH7-A5/GpH7-B3 variant S267_02A/GpL16-k0 (antibody, human IgG1, kappa, mutation in the GpH7-B3 chain only; also called He Ab) heavy 1: not shown heavy 2: not shown light: DIVMTQSPLSLPVTPGEPASISCQASESLVHSNRNTYLHWYLQKPGQSPQLLIYKVSNRFSGVPDRFSGSGSGTDFTLKISRVEAEDVGVYYCSQNTHVPPTFGQGTKVEIERTVAAPSVFIFPPSDEQLKSGTASVVCLLNNFYPREAKVQWKVDNALQSGNSQESVTEQDSKDSTYSLSSTLTLSKADYEKHKVYACEVTHQGLSSPVTKSFNRGEC	150 % of GpH7-A5/GpH7-B3/GpL16-k0	243 % of GpH7-A5/GpH7-B3/GpL16-k0	0.62 ratio
GpH7-A5/GpH7-B3 variant V266_06M/GpL16-k0 (antibody, human IgG1, kappa, mutation in the GpH7-B3 chain only; also called He Ab) heavy 1: not shown heavy 2: not shown light: DIVMTQSPLSLPVTPGEPASISCQASESLVHSNRNTYLHWYLQKPGQSPQLLIYKVSNRFSGVPDRFSGSGSGTDFTLKISRVEAEDVGVYYCSQNTHVPPTFGQGTKVEIERTVAAPSVFIFPPSDEQLKSGTASVVCLLNNFYPREAKVQWKVDNALQSGNSQESVTEQDSKDSTYSLSSTLTLSKADYEKHKVYACEVTHQGLSSPVTKSFNRGEC	85.8 % of GpH7-A5/GpH7-B3/GpL16-k0	251 % of GpH7-A5/GpH7-B3/GpL16-k0	0.34 ratio
GpH7-A5/GpH7-B3 variant S267_04F/GpL16-k0 (antibody, human IgG1, kappa, mutation in the GpH7-B3 chain only; also called He Ab) heavy 1: not shown heavy 2: not shown light: DIVMTQSPLSLPVTPGEPASISCQASESLVHSNRNTYLHWYLQKPGQSPQLLIYKVSNRFSGVPDRFSGSGSGTDFTLKISRVEAEDVGVYYCSQNTHVPPTFGQGTKVEIERTVAAPSVFIFPPSDEQLKSGTASVVCLLNNFYPREAKVQWKVDNALQSGNSQESVTEQDSKDSTYSLSSTLTLSKADYEKHKVYACEVTHQGLSSPVTKSFNRGEC	11 % of GpH7-A5/GpH7-B3/GpL16-k0	48 % of GpH7-A5/GpH7-B3/GpL16-k0	0.23 ratio
GpH7-A5/GpH7-B3 variant S267_07I/GpL16-k0 (antibody, human IgG1, kappa, mutation in the GpH7-B3 chain only; also called He Ab) heavy 1: not shown heavy 2: not shown light: DIVMTQSPLSLPVTPGEPASISCQASESLVHSNRNTYLHWYLQKPGQSPQLLIYKVSNRFSGVPDRFSGSGSGTDFTLKISRVEAEDVGVYYCSQNTHVPPTFGQGTKVEIERTVAAPSVFIFPPSDEQLKSGTASVVCLLNNFYPREAKVQWKVDNALQSGNSQESVTEQDSKDSTYSLSSTLTLSKADYEKHKVYACEVTHQGLSSPVTKSFNRGEC	25.2 % of GpH7-A5/GpH7-B3/GpL16-k0	192 % of GpH7-A5/GpH7-B3/GpL16-k0	0.13 ratio
GpH7-A5/GpH7-B3 variant S267_05P/GpL16-k0 (antibody, human IgG1, kappa, mutation in the GpH7-B3 chain only; also called He Ab) heavy 1: not shown heavy 2: not shown light: DIVMTQSPLSLPVTPGEPASISCQASESLVHSNRNTYLHWYLQKPGQSPQLLIYKVSNRFSGVPDRFSGSGSGTDFTLKISRVEAEDVGVYYCSQNTHVPPTFGQGTKVEIERTVAAPSVFIFPPSDEQLKSGTASVVCLLNNFYPREAKVQWKVDNALQSGNSQESVTEQDSKDSTYSLSSTLTLSKADYEKHKVYACEVTHQGLSSPVTKSFNRGEC	15.7 % of GpH7-A5/GpH7-B3/GpL16-k0	31.5 % of GpH7-A5/GpH7-B3/GpL16-k0	0.5 ratio
GpH7-A5/GpH7-B3 variant V266_11K/GpL16-k0 (antibody, human IgG1, kappa, mutation in the GpH7-B3 chain only; also called He Ab) heavy 1: not shown heavy 2: not shown light: DIVMTQSPLSLPVTPGEPASISCQASESLVHSNRNTYLHWYLQKPGQSPQLLIYKVSNRFSGVPDRFSGSGSGTDFTLKISRVEAEDVGVYYCSQNTHVPPTFGQGTKVEIERTVAAPSVFIFPPSDEQLKSGTASVVCLLNNFYPREAKVQWKVDNALQSGNSQESVTEQDSKDSTYSLSSTLTLSKADYEKHKVYACEVTHQGLSSPVTKSFNRGEC	-0.7 % of GpH7-A5/GpH7-B3/GpL16-k0	1 % of GpH7-A5/GpH7-B3/GpL16-k0	-0.7 ratio
GpH7-A5/GpH7-B3 variant V266_08L/GpL16-k0 (antibody, human IgG1, kappa, mutation in the GpH7-B3 chain only; also called He Ab) heavy 1: not shown heavy 2: not shown light: DIVMTQSPLSLPVTPGEPASISCQASESLVHSNRNTYLHWYLQKPGQSPQLLIYKVSNRFSGVPDRFSGSGSGTDFTLKISRVEAEDVGVYYCSQNTHVPPTFGQGTKVEIERTVAAPSVFIFPPSDEQLKSGTASVVCLLNNFYPREAKVQWKVDNALQSGNSQESVTEQDSKDSTYSLSSTLTLSKADYEKHKVYACEVTHQGLSSPVTKSFNRGEC	118 % of GpH7-A5/GpH7-B3/GpL16-k0	236 % of GpH7-A5/GpH7-B3/GpL16-k0	0.5 ratio
GpH7-A5/GpH7-B3 variant V266_07I/GpL16-k0 (antibody, human IgG1, kappa, mutation in the GpH7-B3 chain only; also called He Ab) heavy 1: not shown heavy 2: not shown light: DIVMTQSPLSLPVTPGEPASISCQASESLVHSNRNTYLHWYLQKPGQSPQLLIYKVSNRFSGVPDRFSGSGSGTDFTLKISRVEAEDVGVYYCSQNTHVPPTFGQGTKVEIERTVAAPSVFIFPPSDEQLKSGTASVVCLLNNFYPREAKVQWKVDNALQSGNSQESVTEQDSKDSTYSLSSTLTLSKADYEKHKVYACEVTHQGLSSPVTKSFNRGEC	114 % of GpH7-A5/GpH7-B3/GpL16-k0	152 % of GpH7-A5/GpH7-B3/GpL16-k0	0.75 ratio
GpH7-A5/GpH7-B3 variant V266_04F/GpL16-k0 (antibody, human IgG1, kappa, mutation in the GpH7-B3 chain only; also called He Ab) heavy 1: not shown heavy 2: not shown light: DIVMTQSPLSLPVTPGEPASISCQASESLVHSNRNTYLHWYLQKPGQSPQLLIYKVSNRFSGVPDRFSGSGSGTDFTLKISRVEAEDVGVYYCSQNTHVPPTFGQGTKVEIERTVAAPSVFIFPPSDEQLKSGTASVVCLLNNFYPREAKVQWKVDNALQSGNSQESVTEQDSKDSTYSLSSTLTLSKADYEKHKVYACEVTHQGLSSPVTKSFNRGEC	34.7 % of GpH7-A5/GpH7-B3/GpL16-k0	57.6 % of GpH7-A5/GpH7-B3/GpL16-k0	0.6 ratio
GpH7-A5/GpH7-B3 variant S267_06M/GpL16-k0 (antibody, human IgG1, kappa, mutation in the GpH7-B3 chain only; also called He Ab) heavy 1: not shown heavy 2: not shown light: DIVMTQSPLSLPVTPGEPASISCQASESLVHSNRNTYLHWYLQKPGQSPQLLIYKVSNRFSGVPDRFSGSGSGTDFTLKISRVEAEDVGVYYCSQNTHVPPTFGQGTKVEIERTVAAPSVFIFPPSDEQLKSGTASVVCLLNNFYPREAKVQWKVDNALQSGNSQESVTEQDSKDSTYSLSSTLTLSKADYEKHKVYACEVTHQGLSSPVTKSFNRGEC	66 % of GpH7-A5/GpH7-B3/GpL16-k0	210 % of GpH7-A5/GpH7-B3/GpL16-k0	0.31 ratio
